Data published in patent publication US11938198B2, “Treatment of heart disease by disruption of the anchoring of PP2A” (University of Miami, priority 2019, dated 2024).

How the values were obtained:
[1] = system: full-length wildtype mAKAP (GFP-tagged) expressed in HEK293 cells
[2] = system: full-length mAKAP mutant with an internal deletion of residues 2053-2073 comprising the PKA binding site (ΔPKA)
[3] = system: T1, myc-tagged rat mAKAP 1286-2083 (lacking the PP2A binding site)
T1 sequence: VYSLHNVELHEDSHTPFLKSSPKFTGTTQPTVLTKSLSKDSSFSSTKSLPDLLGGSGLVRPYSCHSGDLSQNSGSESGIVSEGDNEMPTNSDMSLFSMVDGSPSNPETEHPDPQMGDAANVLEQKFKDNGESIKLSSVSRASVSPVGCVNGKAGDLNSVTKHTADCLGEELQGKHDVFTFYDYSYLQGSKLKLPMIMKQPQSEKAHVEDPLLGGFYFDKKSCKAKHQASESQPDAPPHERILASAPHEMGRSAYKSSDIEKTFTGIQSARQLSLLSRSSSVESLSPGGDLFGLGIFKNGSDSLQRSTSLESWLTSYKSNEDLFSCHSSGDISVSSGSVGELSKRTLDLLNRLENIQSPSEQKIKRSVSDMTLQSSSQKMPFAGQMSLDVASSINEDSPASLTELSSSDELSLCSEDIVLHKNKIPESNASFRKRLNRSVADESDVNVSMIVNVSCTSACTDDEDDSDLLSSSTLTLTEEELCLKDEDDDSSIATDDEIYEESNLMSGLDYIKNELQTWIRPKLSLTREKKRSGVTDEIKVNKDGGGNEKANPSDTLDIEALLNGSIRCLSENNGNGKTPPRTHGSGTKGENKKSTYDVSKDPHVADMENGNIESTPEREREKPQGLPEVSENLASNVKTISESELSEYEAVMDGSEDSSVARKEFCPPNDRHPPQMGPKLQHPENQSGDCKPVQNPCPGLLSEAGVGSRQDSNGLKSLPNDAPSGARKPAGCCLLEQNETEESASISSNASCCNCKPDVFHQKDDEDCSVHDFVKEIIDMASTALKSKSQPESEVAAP

[4] = system: endogenous rat mAKAPβ (native mAKAP of adult rat heart extracts and neonatal rat ventricular myocytes)
[5] = system: T2, myc-tagged rat mAKAP PP2A Binding Domain (myc-PBD, rat mAKAP aa 2134-2314)
T2 sequence: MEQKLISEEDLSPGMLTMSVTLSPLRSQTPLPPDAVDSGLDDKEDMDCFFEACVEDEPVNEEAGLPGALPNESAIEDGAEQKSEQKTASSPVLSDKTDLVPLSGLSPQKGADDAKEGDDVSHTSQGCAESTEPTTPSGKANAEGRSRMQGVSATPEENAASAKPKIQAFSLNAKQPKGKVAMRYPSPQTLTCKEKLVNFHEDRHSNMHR

[6] = molecular target: PP2A endogenous in HEK293 cells, detected as PP2A-C subunit or as okadaic acid-sensitive phosphatase activity; assay: cell-based or functional assay
[7] = system: mAKAPβ-PP2A association; assay: Co-immunoprecipitation of endogenous mAKAPβ-PP2A in myocytes; type: cell-based, rat; details: NRVM infected with adenovirus
Procedure: Neonatal Rat Ventricular Myocyte Culture: 1-3 day old Sprague-Dawley rats were decapitated, and the excised hearts placed in 1× ADS Buffer (116 mM NaCl, 20 mM HEPES, 1 mM NaH2PO4, 5.5 mM glucose, 5.4 mM KCl, 0.8 mM MgSO4, pH 7.35). The atria were carefully removed and the blood washed away. The ventricles were minced and incubated with 15 mL 1× ADS Buffer containing 3.3 mg type II collagenase (Worthington, 230 U/mg) and 9 mg Pancreatin (Sigma) at 37° C. with gentle shaking. After 15 minutes, the dissociated cardiac myocytes were separated by centrifugation at 50 g for 1 minute, resuspended in 4 mL horse serum and incubated at 37° C. with occasional agitation. The steps for enzymatic digestion and isolation of myocytes were repeated 10-12 times to maximize yield. The myocytes were pooled and spun down again at 50 g for 2 minutes and resuspended in Maintenance Medium (DMEM:M199, 4:1) supplemented with 10% horse serum and 5% fetal bovine serum. To remove any contaminating fibroblasts, the cells were pre-plated for 1 hour before plating on gelatin-coated tissue culture plastic ware. This procedure yields >90% pure cardiac myocytes. After 1 day culture, the media was changed to maintenance medium containing 0.1 mM bromodeoxyuridine to suppress fibroblast growth. […]

[8] = system: SRF Ser^103; assay: SRF Ser103 phosphorylation in adult rat ventricular myocytes (ARVM); type: cell-based; details: 10 μM Iso 1 day
Procedure: Adult rat ventricular myocyte isolation and culture: 2-3 month old rats were anesthetized using Ketamine (80-100 mg/kg) and Xylazine (5-10 mg/kg) IP following 1000 U heparinization for cardiac excision. The heart was transferred immediately into chilled perfusion buffer (NaCl 120 mM, KCl 5.4 mM, Na2HPO4·7H2O 1.2 mM, NaHCO320.0 mM, MgCl2·6H2O 1.6 mM, Taurine 5 mM, Glucose 5.6 mM, 2,3-Butanedione monoxime 10 mM) pre-equilibrated with 95% O2 and 5% CO2. After removal of extraneous tissue, the heart was attached via the aorta to a Harvard Langendorff apparatus cannula. Ca^2+-free perfusion was used to flush out remaining blood with a constant rate of 8-10 mL/min at 37° C. The heart was then digested through circulatory perfusion with 50 mL perfusion buffer containing 125 mg type II collagenase (Worthington, 245 U/mg), 0.1 mg protease (Sigma type XIV) and 0.1% BSA. After perfusion, the atria were removed and the ventricular myocytes dissociated by slicing and repetitive pipetting. The debris was filtered by a 200 μm nylon mesh, and the myocytes collected by one minute centrifugation at 50 g. […]

[9] = system: adult rat ventricular myocytes (ARVM); assay: ARVM morphologic hypertrophy (cell width and length by immunocytochemistry); type: cell-based; details: adenoviral expression; for Iso-induced ARVM hypertrophy: 10 μM Iso 24 hours; for basal ARVM morphology: no drug
Procedure: Adult rat ventricular myocyte isolation and culture: 2-3 month old rats were anesthetized using Ketamine (80-100 mg/kg) and Xylazine (5-10 mg/kg) IP following 1000 U heparinization for cardiac excision. The heart was transferred immediately into chilled perfusion buffer (NaCl 120 mM, KCl 5.4 mM, Na2HPO4·7H2O 1.2 mM, NaHCO320.0 mM, MgCl2·6H2O 1.6 mM, Taurine 5 mM, Glucose 5.6 mM, 2,3-Butanedione monoxime 10 mM) pre-equilibrated with 95% O2 and 5% CO2. After removal of extraneous tissue, the heart was attached via the aorta to a Harvard Langendorff apparatus cannula. Ca^2+-free perfusion was used to flush out remaining blood with a constant rate of 8-10 mL/min at 37° C. The heart was then digested through circulatory perfusion with 50 mL perfusion buffer containing 125 mg type II collagenase (Worthington, 245 U/mg), 0.1 mg protease (Sigma type XIV) and 0.1% BSA. After perfusion, the atria were removed and the ventricular myocytes dissociated by slicing and repetitive pipetting. The debris was filtered by a 200 μm nylon mesh, and the myocytes collected by one minute centrifugation at 50 g. Ca^2+ concentration in the buffer was gradually recovered to 1.8 mM and the myocytes were resuspended in ACCT medium (M199 Medium (Invitrogen 11150-059), Creatine 5 mM, L-carnitine 2 mM, Taurine 5 mM, HEPES 25 mM, 2,3-Butanedione monoxime 10 mM, BSA 0.2% and 1×Insulin-Transferrin-Selenium Supplement) and plated on 10 μg/ml laminin pre-coated dishes. Cells were washed with ACCT medium 1.5 hours after plating and subjected to adenoviral infection or siRNA transfection, in which 100-200 Multiplicity of Infection (MOI) of adenovirus and 100 nmol/L siRNA mixed with Dharmafect1 (Dharmacon) were used, respectively. Adrenergic agonists were added the next day, with biochemical assay and morphological measurement performed after 24 hours of stimulation.
Immunocytochemistry: Myocytes on coverslips were fixed in 3.7% formaldehyde in PBS for 1 hour, permeabilized with 0.3% Triton X-100, and blocked in PBS containing 0.2% BSA and 1% horse serum. The slides were then sequentially incubated for 1 hour with primary and Alexa fluorescent dye-conjugated specific-secondary antibodies (Invitrogen, 1:1000) diluted in blocking buffer. The slips were washed three times with blocking buffer. 1 μg/mL Hoechst 33258 was included in the last wash stop to label nuclei. Slides were sealed in SlowFade Gold antifade buffer (Invitrogen, S36938) for fluorescent microscopy. Wide-field images were acquired using a Leica DM4000 Microscope.

[10] = molecular target: T3, myc-tagged, green fluorescent protein (GFP) RBD-fusion protein (mAKAP aa 1694-1833)
T3 chain: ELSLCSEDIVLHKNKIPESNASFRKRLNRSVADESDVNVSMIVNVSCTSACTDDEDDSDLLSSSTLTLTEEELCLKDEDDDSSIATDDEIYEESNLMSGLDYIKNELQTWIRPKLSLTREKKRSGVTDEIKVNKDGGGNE

Sequence of full-length mAKAP mutant with an internal deletion of residues 2053-2073 comprising the PKA binding site (ΔPKA) (chain, as listed by the source mutant): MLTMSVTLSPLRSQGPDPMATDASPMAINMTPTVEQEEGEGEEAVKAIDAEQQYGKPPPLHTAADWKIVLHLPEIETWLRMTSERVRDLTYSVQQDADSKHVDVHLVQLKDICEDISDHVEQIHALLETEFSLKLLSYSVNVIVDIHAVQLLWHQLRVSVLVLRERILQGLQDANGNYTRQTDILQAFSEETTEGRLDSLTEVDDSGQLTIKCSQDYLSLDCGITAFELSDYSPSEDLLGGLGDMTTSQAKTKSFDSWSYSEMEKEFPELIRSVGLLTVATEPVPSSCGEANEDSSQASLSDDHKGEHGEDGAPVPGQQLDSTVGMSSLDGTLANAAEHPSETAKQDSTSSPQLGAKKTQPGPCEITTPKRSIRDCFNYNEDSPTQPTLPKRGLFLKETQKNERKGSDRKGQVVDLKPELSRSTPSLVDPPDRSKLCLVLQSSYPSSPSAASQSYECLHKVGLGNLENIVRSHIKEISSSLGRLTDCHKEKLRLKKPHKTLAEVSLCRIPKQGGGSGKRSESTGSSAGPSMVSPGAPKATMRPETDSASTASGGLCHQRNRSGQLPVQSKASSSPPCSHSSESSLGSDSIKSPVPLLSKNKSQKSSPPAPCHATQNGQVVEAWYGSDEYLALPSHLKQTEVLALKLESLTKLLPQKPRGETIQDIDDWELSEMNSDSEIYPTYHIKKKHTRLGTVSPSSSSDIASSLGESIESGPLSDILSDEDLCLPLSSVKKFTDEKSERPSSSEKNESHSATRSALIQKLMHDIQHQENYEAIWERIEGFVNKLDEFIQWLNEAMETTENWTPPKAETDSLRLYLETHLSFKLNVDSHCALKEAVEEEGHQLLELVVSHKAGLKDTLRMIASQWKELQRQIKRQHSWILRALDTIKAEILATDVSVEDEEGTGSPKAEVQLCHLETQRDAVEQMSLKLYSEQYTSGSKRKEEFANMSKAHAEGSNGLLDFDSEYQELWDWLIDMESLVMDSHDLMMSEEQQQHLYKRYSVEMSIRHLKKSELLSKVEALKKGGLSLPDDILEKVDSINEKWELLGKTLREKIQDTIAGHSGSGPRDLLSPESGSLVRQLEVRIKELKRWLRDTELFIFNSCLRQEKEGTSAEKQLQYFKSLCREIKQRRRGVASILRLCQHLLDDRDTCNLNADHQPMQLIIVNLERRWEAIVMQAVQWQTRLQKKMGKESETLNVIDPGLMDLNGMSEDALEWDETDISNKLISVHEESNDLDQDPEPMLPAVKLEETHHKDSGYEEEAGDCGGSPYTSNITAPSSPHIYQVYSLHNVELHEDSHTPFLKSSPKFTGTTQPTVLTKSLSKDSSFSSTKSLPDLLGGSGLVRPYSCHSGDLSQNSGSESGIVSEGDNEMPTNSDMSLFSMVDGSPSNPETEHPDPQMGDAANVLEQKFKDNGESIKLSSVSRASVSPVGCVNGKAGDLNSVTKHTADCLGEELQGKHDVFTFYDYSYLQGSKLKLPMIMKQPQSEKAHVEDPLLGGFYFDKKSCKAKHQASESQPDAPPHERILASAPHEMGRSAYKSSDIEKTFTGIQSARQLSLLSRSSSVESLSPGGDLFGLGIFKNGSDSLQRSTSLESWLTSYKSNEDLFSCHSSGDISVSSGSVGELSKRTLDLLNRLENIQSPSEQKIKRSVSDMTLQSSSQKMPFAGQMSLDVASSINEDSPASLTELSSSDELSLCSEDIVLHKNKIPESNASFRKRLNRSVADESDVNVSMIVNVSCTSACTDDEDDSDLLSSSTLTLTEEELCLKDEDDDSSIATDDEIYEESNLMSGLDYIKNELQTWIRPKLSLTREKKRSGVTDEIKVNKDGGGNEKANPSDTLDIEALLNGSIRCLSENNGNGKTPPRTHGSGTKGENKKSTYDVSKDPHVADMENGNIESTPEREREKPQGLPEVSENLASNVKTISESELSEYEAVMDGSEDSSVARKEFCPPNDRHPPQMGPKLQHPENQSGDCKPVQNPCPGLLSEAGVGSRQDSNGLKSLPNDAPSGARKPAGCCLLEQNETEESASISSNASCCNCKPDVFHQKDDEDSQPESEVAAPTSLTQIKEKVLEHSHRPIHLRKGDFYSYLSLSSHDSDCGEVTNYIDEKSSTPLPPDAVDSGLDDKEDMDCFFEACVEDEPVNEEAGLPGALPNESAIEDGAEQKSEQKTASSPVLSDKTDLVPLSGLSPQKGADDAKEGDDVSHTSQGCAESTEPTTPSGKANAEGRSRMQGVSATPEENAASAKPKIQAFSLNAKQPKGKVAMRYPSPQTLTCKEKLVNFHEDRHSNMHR
Sequence of full-length wildtype mAKAP (GFP-tagged) expressed in HEK293 cells (chain, as listed by the source): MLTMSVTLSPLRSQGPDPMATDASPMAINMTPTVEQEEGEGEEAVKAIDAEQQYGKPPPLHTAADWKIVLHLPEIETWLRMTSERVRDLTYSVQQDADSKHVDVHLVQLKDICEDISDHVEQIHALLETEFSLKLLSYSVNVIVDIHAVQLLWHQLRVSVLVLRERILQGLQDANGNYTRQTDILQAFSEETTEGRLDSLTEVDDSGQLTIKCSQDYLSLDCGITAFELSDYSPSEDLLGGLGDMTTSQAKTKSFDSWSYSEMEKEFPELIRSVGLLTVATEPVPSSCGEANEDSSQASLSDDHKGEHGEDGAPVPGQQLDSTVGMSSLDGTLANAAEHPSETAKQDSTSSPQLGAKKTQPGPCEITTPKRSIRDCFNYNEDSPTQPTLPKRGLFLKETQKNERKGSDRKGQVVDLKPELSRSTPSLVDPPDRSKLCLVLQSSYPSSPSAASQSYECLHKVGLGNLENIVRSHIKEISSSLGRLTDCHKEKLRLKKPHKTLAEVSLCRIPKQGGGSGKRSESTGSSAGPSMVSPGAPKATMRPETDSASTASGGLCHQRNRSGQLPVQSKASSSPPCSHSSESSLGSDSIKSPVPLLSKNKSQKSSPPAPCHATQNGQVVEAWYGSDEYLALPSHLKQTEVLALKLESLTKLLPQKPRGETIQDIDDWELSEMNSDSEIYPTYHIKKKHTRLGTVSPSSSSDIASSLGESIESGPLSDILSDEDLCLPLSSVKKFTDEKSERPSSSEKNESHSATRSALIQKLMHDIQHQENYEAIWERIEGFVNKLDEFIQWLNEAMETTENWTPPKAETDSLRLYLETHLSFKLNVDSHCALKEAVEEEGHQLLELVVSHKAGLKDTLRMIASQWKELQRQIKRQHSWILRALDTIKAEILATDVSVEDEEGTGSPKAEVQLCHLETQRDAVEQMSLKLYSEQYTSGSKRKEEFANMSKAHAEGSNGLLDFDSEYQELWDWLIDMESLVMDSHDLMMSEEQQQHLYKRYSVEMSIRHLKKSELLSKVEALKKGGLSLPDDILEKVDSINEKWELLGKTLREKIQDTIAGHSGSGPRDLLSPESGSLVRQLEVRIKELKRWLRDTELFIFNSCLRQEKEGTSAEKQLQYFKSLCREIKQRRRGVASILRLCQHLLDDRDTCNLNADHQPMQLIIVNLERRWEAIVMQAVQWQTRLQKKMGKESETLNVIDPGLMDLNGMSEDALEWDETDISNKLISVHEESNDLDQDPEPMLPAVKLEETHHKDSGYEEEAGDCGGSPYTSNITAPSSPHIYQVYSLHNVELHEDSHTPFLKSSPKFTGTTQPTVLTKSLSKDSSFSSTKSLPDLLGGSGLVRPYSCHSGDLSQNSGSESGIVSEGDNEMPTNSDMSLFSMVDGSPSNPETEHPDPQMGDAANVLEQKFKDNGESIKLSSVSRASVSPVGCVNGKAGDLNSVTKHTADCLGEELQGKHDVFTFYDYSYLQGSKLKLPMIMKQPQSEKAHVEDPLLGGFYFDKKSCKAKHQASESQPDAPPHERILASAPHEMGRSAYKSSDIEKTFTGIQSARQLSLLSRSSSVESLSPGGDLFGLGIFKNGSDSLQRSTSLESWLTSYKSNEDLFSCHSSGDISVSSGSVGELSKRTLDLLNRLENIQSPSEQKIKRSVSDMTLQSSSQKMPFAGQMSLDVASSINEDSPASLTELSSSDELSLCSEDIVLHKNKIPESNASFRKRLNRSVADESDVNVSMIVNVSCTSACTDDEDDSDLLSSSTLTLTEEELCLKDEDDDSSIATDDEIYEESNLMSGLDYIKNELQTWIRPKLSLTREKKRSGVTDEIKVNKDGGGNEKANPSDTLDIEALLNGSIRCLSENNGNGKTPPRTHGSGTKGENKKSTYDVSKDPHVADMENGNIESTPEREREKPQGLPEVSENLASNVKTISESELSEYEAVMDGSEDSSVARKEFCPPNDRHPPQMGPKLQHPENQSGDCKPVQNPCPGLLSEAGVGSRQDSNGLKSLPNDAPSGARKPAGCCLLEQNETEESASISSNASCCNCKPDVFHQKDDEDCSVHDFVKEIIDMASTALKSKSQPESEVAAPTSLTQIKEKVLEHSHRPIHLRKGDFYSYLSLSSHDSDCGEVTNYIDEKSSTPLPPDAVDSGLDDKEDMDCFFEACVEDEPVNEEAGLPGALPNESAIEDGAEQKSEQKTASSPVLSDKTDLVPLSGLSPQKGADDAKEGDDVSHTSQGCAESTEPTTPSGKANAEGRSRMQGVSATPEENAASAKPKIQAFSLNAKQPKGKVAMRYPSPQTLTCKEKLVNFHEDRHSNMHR

## PKA (cAMP-dependent protein kinase) endogenous in HEK293 cells
[1]
  phosphatase activity in mAKAP immunoprecipitates after Fsk/IBMX: cAMP elevation increased phosphatase activity in mAKAP complexes 1.7 fold
[2]
  B56δ Ser-566 phosphorylation in mAKAP immunoprecipitates: B56δ phosphorylation was detected only after FSK/IBMX treatment and only when B56δ was co-expressed with wildtype mAKAP and not the ΔPKA mutant
  phosphatase activity in mAKAP immunoprecipitates after Fsk/IBMX: no increase was obtained when B56δ was co-expressed with the mAKAP ΔPKA mutant scaffold

## PP2A endogenous in HEK293 cells, detected as PP2A-C subunit or as okadaic acid-sensitive phosphatase activity
[3]
  baseline phosphorylation of mAKAP-bound PDE4D3 Ser-54: 0.49±0.19 fold of the level obtained with OA

## endogenous PP2A of rat heart and rat ventricular myocytes, detected as PP2A catalytic subunit (PP2A-C)
[4]
  phosphatase activity associated with mAKAP immunoprecipitates from heart extracts ([32P]histone substrate): 3-fold enrichment of phosphatase activity over control IgG immunoprecipitates
[5]
  Iso-induced SRF Ser103 phosphorylation in ARVM: PBD expression potentiated the induction of SRF Ser^103 phosphorylation in ARVM stimulated with the β-adrenergic isoproterenol

## myc-tagged rat mAKAP 1286-2083 (lacking the PP2A binding site) (from UniProt Q9WVC7 1286-2083)
[6]
  PDE4D3 activity in myc-tag immunoprecipitates: 30 % higher

B1: PBD: myc-tagged mAKAP aa 2134-2314 fragment, PP2A anchoring disruptor, expressed by adenovirus (protein)
chain: MEQKLISEEDLSPGMLTMSVTLSPLRSQTPLPPDAVDSGLDDKEDMDCFFEACVEDEPVNEEAGLPGALPNESAIEDGAEQKSEQKTASSPVLSDKTDLVPLSGLSPQKGADDAKEGDDVSHTSQGCAESTEPTTPSGKANAEGRSRMQGVSATPEENAASAKPKIQAFSLNAKQPKGKVAMRYPSPQTLTCKEKLVNFHEDRHSNMHR
modifications: myc-tagged rat mAKAP PBD
notes: myc-tagged mAKAP aa 2134-2314 fragment, PP2A anchoring disruptor, expressed by adenovirus
[7]
  endogenous mAKAPβ-PP2A association: competed endogenous mAKAPβ-PP2A association
[8]
  Iso-induced SRF Ser^103 phosphorylation: potentiated the induction of SRF Ser^103 phosphorylation
[9]
  Iso-induced ARVM hypertrophy: attenuated the eccentric hypertrophy
  basal ARVM morphology: no effect
[9]; listed as PDB
  Iso-induced ARVM hypertrophy: promoted ARVM concentric hypertrophy
[9]; 20 μM PE 24 hours
  PE-induced ARVM hypertrophy: did not enhance nor diminish

B2: endogenous RSK3 of rat ventricular myocytes (protein)
chain: MELNMKKFTVRRFFSVYLRKKSRSKSSSLSRLEEEGIVKEIDISSHVKEGFEKADPSQFELLKVLGQGSYGKVFLVRKVTGSDAGQLYAMKVLKKATLKVRDRVRSKMERDILAEVNHPFIVKLHYAFQTEGKLYLILDFLRGGDLFTRLSKEVMFTEEDVKFYLAELALALDHLHGLGIIYRDLKPENILLDEEGHIKITDFGLSKEAIDHDKRAYSFCGTIEYMAPEVVNRRGHTQSADWWSFGVLMFEMLTGSLPFQGKDRKETMALILKAKLGMPQFLSAEAQSLLRALFKRNPCNRLGAGVDGVEEIKRHPFFVTIDWNKLYRKEIKPPFKPAVGRPEDTFHFDPEFTARTPTDSPGVPPSANAHHLFRGFSFVASSLVQEPSQQDVPKAPIHPIVQQLHGNNIHFTDGYEIKEDIGVGSYSVCKRCVHKATDAEYAVKIIDKSKRDPSEEIEILLRYGQHPNIITLKDVYDDGKYVYLVMELMRGGELLDRILRQRCFSEREASDVLYTIARTMDYLHSQGVVHRDLKPSNILYMDESGNPESIRICDFGFAKQLRAENGLLMTPCYTANFVAPEVLKRQGYDAACDVWSLGILLYTMLAGFTPFANGPDDTPEEILARIGSGKYALSGGNWDSISDAAKDVVSKMLHVDPQQRLTAVQVLKHPWIVNREYLSQNQLSRQDVHLVKGAMAATYFALNRTPQAPRLEPVLSSSLAQRRGMKRLTSTRL
[9]
  basal ARVM morphology: selectively increased the width
[10]
  PE-induced SRF Ser103 phosphorylation in NRVM and ARVM: inhibited PE-induced SRF Ser^103 phosphorylation in both NRVM and primary adult rat ventricular myocyte cultures
